Data from patent EP4682166A1 (Guangzhou Enmai Biotechnology Co., Ltd, dated 2026).

T1: human NMI (N-myc Interacting protein), recombinant protein (human, UniProt Q13287 1-307, limits assumed)
T1 construct: Gene ID: 9111; also called hNMI; antigen
T1 sequence (looked up): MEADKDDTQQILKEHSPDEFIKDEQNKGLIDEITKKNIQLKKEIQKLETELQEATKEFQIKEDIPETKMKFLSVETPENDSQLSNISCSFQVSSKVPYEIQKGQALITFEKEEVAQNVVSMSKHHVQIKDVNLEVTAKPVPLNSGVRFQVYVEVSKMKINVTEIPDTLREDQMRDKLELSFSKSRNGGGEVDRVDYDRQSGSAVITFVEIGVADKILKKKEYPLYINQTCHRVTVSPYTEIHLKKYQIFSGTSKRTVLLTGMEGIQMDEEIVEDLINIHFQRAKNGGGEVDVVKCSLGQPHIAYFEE


Experiments:
[1] = target: T1, human NMI (N-myc Interacting protein), …; assay: ELISA EC50 against parent 94C4
[2] = target: T1, human NMI (N-myc Interacting protein), …; assay: ELISA EC50 against parent 98G10
[3] = target: T1, human NMI (N-myc Interacting protein), …; assay: ELISA, binding to hNMI

| Binder | Fold decrease in affinity [1] [fold] | Fold decrease in affinity [2] [fold] | EC50 [3] [nM] |
| --- | --- | --- | --- |
| 94C4 mutant A32K (VH) (antibody, V domains shown) VH: QSLEESGGGLVQPEGSLTLTCKASGFDFSSNKMCWVRQAPGKGLEWIACISSASSGSSGSTYYASWAKGRFTISKTSSTTVTLQMTSLTAADMATYFCARDGYDLWGPGTLVTVSS VL: QVLTQTPSSVSAAVGGTVTISCQSSPSVYNNYLSWFQQKPGQSPKLLIYRVSTLASGVPSRFSGSGSGTQFTLTISGVQCDDAATYYCAGGYDSASDTYVFGGGTEVVVK | > 500 |  |  |
| 94C4 mutant D97K (VL) (antibody, V domains shown) VH: QSLEESGGGLVQPEGSLTLTCKASGFDFSSNAMCWVRQAPGKGLEWIACISSASSGSSGSTYYASWAKGRFTISKTSSTTVTLQMTSLTAADMATYFCARDGYDLWGPGTLVTVSS VL: QVLTQTPSSVSAAVGGTVTISCQSSPSVYNNYLSWFQQKPGQSPKLLIYRVSTLASGVPSRFSGSGSGTQFTLTISGVQCDDAATYYCAGGYDSASKTYVFGGGTEVVVK | > 500 |  |  |
| 98G10-1 (mutated antibody of Table 17-7) (antibody, V domains shown, also called 98G10 C80P (VL)) VH: QEQLEESGGDLVKPEGSLTLTCTASGFSFSASYWICWVRQAPGKGLEWIACIYGGSSGSAYYASWAKGRFTISKTSSTTVTLQMTSLTAADTATYFCARAGYYNYGSAGDIYPSSFKLWGPGTLVTVSS VL: DIVMTQTPASVEAAVGGTVTINCQASQSISTALAWYQQKPGQPPKLLIYTASKVASGVPSRFSGSGSGTQFTLTISDLEPADAATYYCQNYYYSSSSITFGGGTEVVVK |  | 1.05 | 0.173 |
| 98G10-5 (antibody, V domains shown, also called 98G10 T18R/C80P (VL)) VH: QEQLEESGGDLVKPEGSLTLTCTASGFSFSASYWICWVRQAPGKGLEWIACIYGGSSGSAYYASWAKGRFTISKTSSTTVTLQMTSLTAADTATYFCARAGYYNYGSAGDIYPSSFKLWGPGTLVTVSS VL: DIVMTQTPASVEAAVGGRVTINCQASQSISTALAWYQQKPGQPPKLLIYTASKVASGVPSRFSGSGSGTQFTLTISDLEPADAATYYCQNYYYSSSSITFGGGTEVVVK |  | 1.44 | 0.238 |
| 98G10-3 (antibody, V domains shown, also called 98G10 T81Y (VH), C80P (VL)) VH: QEQLEESGGDLVKPEGSLTLTCTASGFSFSASYWICWVRQAPGKGLEWIACIYGGSSGSAYYASWAKGRFTISKTSSTTVYLQMTSLTAADTATYFCARAGYYNYGSAGDIYPSSFKLWGPGTLVTVSS VL: DIVMTQTPASVEAAVGGTVTINCQASQSISTALAWYQQKPGQPPKLLIYTASKVASGVPSRFSGSGSGTQFTLTISDLEPADAATYYCQNYYYSSSSITFGGGTEVVVK |  | 1.06 | 0.176 |
| 98G10-8 (antibody, V domains shown, also called 98G10 T23K/T75D/T81Y (VH), T18R/C80P (VL)) VH: QEQLEESGGDLVKPEGSLTLTCKASGFSFSASYWICWVRQAPGKGLEWIACIYGGSSGSAYYASWAKGRFTISKDSSTTVYLQMTSLTAADTATYFCARAGYYNYGSAGDIYPSSFKLWGPGTLVTVSS VL: DIVMTQTPASVEAAVGGRVTINCQASQSISTALAWYQQKPGQPPKLLIYTASKVASGVPSRFSGSGSGTQFTLTISDLEPADAATYYCQNYYYSSSSITFGGGTEVVVK |  | 0.64 | 0.106 |
| 98G10-2 (antibody, V domains shown, also called 98G10 T81Y (VH)) VH: QEQLEESGGDLVKPEGSLTLTCTASGFSFSASYWICWVRQAPGKGLEWIACIYGGSSGSAYYASWAKGRFTISKTSSTTVYLQMTSLTAADTATYFCARAGYYNYGSAGDIYPSSFKLWGPGTLVTVSS VL: DIVMTQTPASVEAAVGGTVTINCQASQSISTALAWYQQKPGQPPKLLIYTASKVASGVPSRFSGSGSGTQFTLTISDLECADAATYYCQNYYYSSSSITFGGGTEVVVK |  | 0.29 | 0.0483 |
| 98G10-12 (antibody, V domains shown, also called 98G10 T75D (VH)) VH: QEQLEESGGDLVKPEGSLTLTCTASGFSFSASYWICWVRQAPGKGLEWIACIYGGSSGSAYYASWAKGRFTISKDSSTTVTLQMTSLTAADTATYFCARAGYYNYGSAGDIYPSSFKLWGPGTLVTVSS VL: DIVMTQTPASVEAAVGGTVTINCQASQSISTALAWYQQKPGQPPKLLIYTASKVASGVPSRFSGSGSGTQFTLTISDLECADAATYYCQNYYYSSSSITFGGGTEVVVK |  | 0.45 | 0.0746 |
| 98G10-7 (antibody, V domains shown, also called 98G10 T23K/T81Y (VH), T18R/C80P (VL)) VH: QEQLEESGGDLVKPEGSLTLTCKASGFSFSASYWICWVRQAPGKGLEWIACIYGGSSGSAYYASWAKGRFTISKTSSTTVYLQMTSLTAADTATYFCARAGYYNYGSAGDIYPSSFKLWGPGTLVTVSS VL: DIVMTQTPASVEAAVGGRVTINCQASQSISTALAWYQQKPGQPPKLLIYTASKVASGVPSRFSGSGSGTQFTLTISDLEPADAATYYCQNYYYSSSSITFGGGTEVVVK |  | 0.81 | 0.133 |
| 98G10-4 (antibody, V domains shown, also called 98G10 T23K (VH), C80P (VL)) VH: QEQLEESGGDLVKPEGSLTLTCKASGFSFSASYWICWVRQAPGKGLEWIACIYGGSSGSAYYASWAKGRFTISKTSSTTVTLQMTSLTAADTATYFCARAGYYNYGSAGDIYPSSFKLWGPGTLVTVSS VL: DIVMTQTPASVEAAVGGTVTINCQASQSISTALAWYQQKPGQPPKLLIYTASKVASGVPSRFSGSGSGTQFTLTISDLEPADAATYYCQNYYYSSSSITFGGGTEVVVK |  | 1.07 | 0.177 |
| 98G10-10 (antibody, V domains shown, also called 98G10 T23K/T75D/T81Y (VH), T18R/Q70D/C80P (VL)) VH: QEQLEESGGDLVKPEGSLTLTCKASGFSFSASYWICWVRQAPGKGLEWIACIYGGSSGSAYYASWAKGRFTISKDSSTTVYLQMTSLTAADTATYFCARAGYYNYGSAGDIYPSSFKLWGPGTLVTVSS VL: DIVMTQTPASVEAAVGGRVTINCQASQSISTALAWYQQKPGQPPKLLIYTASKVASGVPSRFSGSGSGTDFTLTISDLEPADAATYYCQNYYYSSSSITFGGGTEVVVK |  | 1.02 | 0.168 |
| 98G10-6 (antibody, V domains shown, also called 98G10 T81Y (VH), T18R/C80P (VL)) VH: QEQLEESGGDLVKPEGSLTLTCTASGFSFSASYWICWVRQAPGKGLEWIACIYGGSSGSAYYASWAKGRFTISKTSSTTVYLQMTSLTAADTATYFCARAGYYNYGSAGDIYPSSFKLWGPGTLVTVSS VL: DIVMTQTPASVEAAVGGRVTINCQASQSISTALAWYQQKPGQPPKLLIYTASKVASGVPSRFSGSGSGTQFTLTISDLEPADAATYYCQNYYYSSSSITFGGGTEVVVK |  | 1.02 | 0.168 |
| 98G10-9 (antibody, V domains shown, also called 98G10 T23K/T81Y (VH), T18R/Q70D/C80P (VL)) VH: QEQLEESGGDLVKPEGSLTLTCKASGFSFSASYWICWVRQAPGKGLEWIACIYGGSSGSAYYASWAKGRFTISKTSSTTVYLQMTSLTAADTATYFCARAGYYNYGSAGDIYPSSFKLWGPGTLVTVSS VL: DIVMTQTPASVEAAVGGRVTINCQASQSISTALAWYQQKPGQPPKLLIYTASKVASGVPSRFSGSGSGTDFTLTISDLEPADAATYYCQNYYYSSSSITFGGGTEVVVK |  | 0.72 | 0.119 |
| 98G10-11 (antibody, V domains shown, also called 98G10 Q70D (VL)) VH: QEQLEESGGDLVKPEGSLTLTCTASGFSFSASYWICWVRQAPGKGLEWIACIYGGSSGSAYYASWAKGRFTISKTSSTTVTLQMTSLTAADTATYFCARAGYYNYGSAGDIYPSSFKLWGPGTLVTVSS VL: DIVMTQTPASVEAAVGGTVTINCQASQSISTALAWYQQKPGQPPKLLIYTASKVASGVPSRFSGSGSGTDFTLTISDLECADAATYYCQNYYYSSSSITFGGGTEVVVK |  | 0.4 | 0.0659 |
